The nature of this data set: protein stability index of a GFP-peptide fusion (GPS, HEK-293T) (PSI 1-6); higher = more stable. Particulars: c terminus: a fixed tail appended.
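Note: lentivirally expressed fusions sorted by FACS into six bins by GFP to DsRed ratio, PSI derived from sequencing read proportions per bin multiplied by bin number.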

B1: COX4I1 WT (peptide)
chain: FDKEWVAKQTKRMLDMKVNPIQGL
Consider B1, for which the protein stability index (parent: IOH62819_23) is 1.75.

B2: SASS6 WT (peptide)
chain: QKELQDVGQSLRIKEQEVCKLQEQ
For the protein B2, the protein stability index (parent: IOH63533_44) came to 5.02.

B3: CHIT1 WT (peptide)
chain: CSWKGATKQRIQDQKVPYIFRDNQ
Consider B3, for which, for the setting “parent: IOH63601_52”, the protein stability index was found to be 2.59.

B4: SPATS1 WT (peptide)
chain: YPEQSKGFHKAGSMLPPVNFSIVP
Regarding B4, the protein stability index (parent: IOH63376_36) was found to be 1.94.

B5: TCEB3B WT (peptide)
chain: STTALGDKQRKANESKGTRESWDS
Take B5: the protein stability index (parent: IOH63382_68) was 3.77.

B6: CRYL1 WT (peptide)
chain: RNALENIRKEMKLLEQAGSLKGSL
Turning to B6, the protein stability index (parent: IOH81349_8) is 3.44.

B7: SLC25A39 WT (peptide)
chain: LTSDLYAPMVAGALARLGTVTVIS
Consider B7, for which the protein stability index (parent: IOH63154_27) worked out at 2.94.

B8: SETD8 WT (peptide)
chain: GKQAPRKKAQGKTQQNRKLTDFYP
Regarding B8, the protein stability index (parent: IOH80936_28) came to 2.67.

B9: CPXM2 WT (peptide)
chain: TASTKNCMVGYDMGATRCDFTLSK
On to B9, for which, under “parent: IOH80553_117”, the protein stability index came to 2.15.

B10: PLD5 WT (peptide)
chain: VTYMNMTAYNKGRLQSSFWIVDKQ
Consider B10, for which the protein stability index (parent: IOH63495_20) is 2.36.

B11: SETD8 WT (peptide)
chain: KKAQGKTQQNRKLTDFYPVRRSSR
On to B11, for which, where the note is “parent: IOH80936_29”, the protein stability index was 2.19.

B12: MIA2 WT (peptide)
chain: DMVSNIELPTRIHEEVYFEPSSSK
Turning to B12, the protein stability index (parent: IOH80698_88) stood at 3.89.

B13: MIA2 WT (peptide)
chain: SVIEPVQESSFRSRKIAVEDENDL
For B13, where the note is “parent: IOH80698_41”, the protein stability index worked out at 5.18.

B14: COX4I1 WT (peptide)
chain: VAHVKHLSASQKALKEKEKASWSS
Regarding B14, the protein stability index (parent: IOH62819_9) came to 3.21.

B15: SPATS1 WT (peptide)
chain: GRKKYDIDPRNGIPKLTPGDNPYM
As to B15, for the setting “parent: IOH63376_32”, the protein stability index is 3.52.

B16: KRT71 WT (peptide)
chain: ELRNVQDVVEDYKKRYEEEINKRT
For B16, the protein stability index (parent: IOH63384_35) was determined as 3.49.

B17: MIA2 WT (peptide)
chain: NSISSDKEATVPCTEILTEKKDTI
Regarding B17, the protein stability index (parent: IOH80698_58) was found to be 5.37.

B18: DUSP5 WT (peptide)
chain: YSEYPECCVDVKPISQEKIESERA
As for B18, under “parent: IOH62976_23”, the protein stability index was 4.09.

B19: YPEL3 WT (peptide)
chain: SKPKTFQAYLDDCHRRYSCAHCRA
Take B19: the protein stability index (parent: IOH80494_8) was found to be 1.87.

B20: SETD8 WT (peptide)
chain: FVVEYHGDLIEITDAKKREALYAQ
For B20, the protein stability index (parent: IOH80936_41) is 2.1.

B21: PLD5 WT (peptide)
chain: KRTYWPDLDAKIREALVLRSVRVR
For B21, the protein stability index (parent: IOH63495_45) amounted to 2.02.

B22: LYSMD4 WT (peptide)
chain: LLQRELAQEDSLNKLALQYGCKVA
On to B22, for which the protein stability index (parent: IOH63099_13) was 1.92.

B23: KRT71 WT (peptide)
chain: FGSRSLYSLGGVRSLNVASGSGKS
B23: the protein stability index (parent: IOH63384_8) came to 1.86.

B24: ADAMTSL2 WT (peptide)
chain: KKPPEESTCFERPCFKWYTSPWSE
In the case of B24, the protein stability index (parent: IOH80445_141) came to 2.4.

B25: PLD5 WT (peptide)
chain: WIVDKQHVYIGSAGLDWQSLGQMK
Consider B25, for which, where the note is “parent: IOH63495_23”, the protein stability index is 1.79.

B26: SOAT2 WT (peptide)
chain: SLGKQKVFIIRKSLLDELMEVQHF
In the case of B26, the protein stability index (parent: IOH63195_17) was determined as 2.25.

B27: CPXM2 WT (peptide)
chain: EILGCPLPDPNNYYHRRNEMTTTD
Regarding B27, the protein stability index (parent: IOH80553_49) is 3.32.

For the origin of these results see the supplement of paper PMC10567573.
